Test results taken from PMC5143173.

How the values were obtained:
[1] = biological target: AIF S480A (human) (UniProt O95831); test: SAXS
[2] = biological target: AIF H454A (human) (UniProt O95831); test: SAXS

Row | Substance | stoichiometry N [1] | stoichiometry N [2]
1 | AIF S480A (from UniProt O95831 78-613) (domain or fragment) | 2 | 
2 | AIF H454A (from UniProt O95831 78-613) (domain or fragment) |  | 2
